The results in this text go back to paper PMC5433843, “Protein Phosphatase 1 inactivates Mps1 to ensure efficient Spindle Assembly Checkpoint silencing” (eLife, 2017).

The experiment has as its target T1, MBP-PP1-87B (Drosophila, UniProt P12982 1-302).
T1 construct: Drosophila PP1-87B (orthologue of PP1-gamma); also called MBP-87B; Protein Phosphatase 1; source: E. coli BL21-star, purified with amylose magnetic beads
The experiment is described as follows: pull-down; purified 6xHis-N-Mps1 fragments incubated with MBP or MBP-PP1-87B bound to amylose magnetic beads; column buffer 250 mM NaCl, 20 mM Tris-HCl pH 7.4, 1 mM EDTA, 1 mM DTT; 60 min, room temperature; western blot. The note with it: both partners purified. In general terms: A western blot detects proteins with antibodies after separation by electrophoresis.

T1 sequence (P12982 whole entry): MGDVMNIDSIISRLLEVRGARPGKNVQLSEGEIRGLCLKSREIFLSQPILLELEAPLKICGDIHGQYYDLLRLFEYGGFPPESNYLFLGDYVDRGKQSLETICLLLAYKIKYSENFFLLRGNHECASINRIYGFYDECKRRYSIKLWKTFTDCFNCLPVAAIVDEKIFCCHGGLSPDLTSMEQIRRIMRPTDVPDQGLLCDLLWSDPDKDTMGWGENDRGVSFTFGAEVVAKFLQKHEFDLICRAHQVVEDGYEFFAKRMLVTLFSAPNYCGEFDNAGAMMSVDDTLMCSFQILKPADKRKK

B1: 6xHis-N-Mps1^WT (domain or fragment, Drosophila, UniProt Q9VEH1 104-330, looked up)
chain: PSQELTNSNSNITTRRTPSAAPLKQSDSNLSFLGRFNDMGINCSSQGSPVANSEKQVAKKTAPTLQAAPSATERRPLQETETPLRNELPSTSKTKPDADFITPQVRTIGSTLAGKSRSAVSNDFRAQKVLFQTPMTVSRAAPVASDSISFSLCDTITESPDIPEPPKKAEPPKSQHPSKKSLDHVFRESDKDNVPDKVDNVEPKELVSIPAVAVPPEQPSHKTSNIL
notes: Drosophila Mps1, N-terminus 104-330 amino acids, cloned into KpnI/XhoI sites of pET30a(+); pET30a(+) may add further vector-coded residues (S-tag) besides the His tag; also called Mps1 N-terminus region (104-330 amino acids); source: E. coli BL21-star, purified with Novex Dynabeads, eluted with imidazole
Consider B1, for which the binding result is given as “binds”.
